Reference: patent publication US12559863B2, “Macrocyclic modulators of disease associated protein misfolding and aggregation” (RESQ BIOTECH, priority 2017, dated 2026)

Biological target: T1, Aβ42-GFP (Homo sapiens, UniProt P05067)
T1 construct: a chimeric fusion of the human Aβ(1-42) peptide (Aβ42) with GFP; expressed in transfected cells; host or cells: E. coli BL21(DE3)
Assay: High-throughput sequencing of pSICLOPPS vectors isolated after bacterial sorting for enhanced Aβ42-GFP fluorescence
Details: for Reads/Total TXXXR reads (%): relative to total TXXXR reads; for Normalized read number (%): Table 3, cyclo-TXXR tetrapeptides
How it was run: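 Peptide inserts recovered from repeatedly sorted high-GFP clones were sequenced on Ion Torrent, excluding stop-codon-containing reads. Sorting used BL21(DE3) cells carrying pETAβ42-GFP plus the tetra-, penta- and hexapeptide pSICLOPPS library. Peptide production was induced with 0.002% L-arabinose and the reporter with 0.1 mM IPTG at OD600 ~0.5, at 37° C.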

[1] = after the second round of bacterial sorting
[2] = after the second round of bacterial sorting, relative to total pentapeptide reads
[3] = after the second round of bacterial sorting, relative to total peptide reads
[4] = high-throughput sequencing of isolated pSICLOPPS-NuX1X2X3-X5 vectors after the second round of bacterial sorting for enhanced Aβ42-GFP fluorescence, selected cyclo-TXXXR pentapeptides
[5] = Table 4, hexapeptides, after second round of sorting

| Substance | Reads/Total TXXXR reads (%) [1] | Reads/Total pentapeptide reads (%) [2] | Reads/Total peptide reads (%) [3] | Number of reads [4] | also measured |
| --- | --- | --- | --- | --- | --- |
| AβC5-45 (TTWVR; cyclic pentapeptide) | 1.094% | 0.512% | 0.459% | 20,798 | – |
| AβC5-276 (TSWAR; cyclic) | 0.013% | 0.006% | 0.005% | 249 | – |
| AβC5-278 (TTWLR; cyclic) | 0.013% | 0.006% | 0.005% | 241 | – |
| AβC5-46 (TLLWR; cyclic pentapeptide) | 1.049% | 0.492% | 0.440% | 19,957 | – |
| AβC5-41 (TGWAR; head-to-tail cyclic) | 1.145% | 0.537% | 0.481% | 21,784 | – |
| TPVWLD [AβC6-80] | – | – | – | – | Reads/Total hexapeptide reads (%) (Table 4): 0.012%; Reads/Total peptide reads (%) (Table 4): 0.001%; Number of reads [5]: 55 |
| AβC5-2 (TTYAR; cyclic) | 16.023% | 7.506% | 6.727% | 304,753 | – |
| AβC5-329 (TTVRR; head-to-tail cyclic) | 0.007% | 0.003% | 0.003% | 141 | – |
| AβC5-361 (TTKWR; head-to-tail cyclic) | 0.006% | 0.003% | 0.002% | 108 | – |
| TLSVFD [AβC6-57] | – | – | – | – | Reads/Total hexapeptide reads (%) (Table 4): 0.039%; Reads/Total peptide reads (%) (Table 4): 0.004%; Number of reads [5]: 176 |
| AβC5-298 (TTRGR; cyclic) | 0.011% | 0.005% | 0.004% | 201 | – |
| AβC5-272 (TCMWR; cyclic) | 0.013% | 0.006% | 0.006% | 254 | – |
| AβC5-434 (TTSGR; cyclic pentapeptide) | – | – | – | – | Reads/Total TXXXR reads (%) (after the second round of bacterial sorting for enhanced Aβ42-GFP fluorescence): 0.003%; Reads/Total pentapeptide reads (%) (after the second round of bacterial sorting for enhanced Aβ42-GFP fluorescence, relative to total pentapeptide reads): 0.002%; Reads/Total peptide reads (%) (after the second round of bacterial sorting for enhanced Aβ42-GFP fluorescence, relative to total peptide reads): 0.001%; Number of reads (pSICLOPPS-NuX1X2X3-X5 vectors after the second round of bacterial sorting for enhanced Aβ42-GFP fluorescence): 65 |
| cyclo-SITPT [AβC5-380] | – | – | – | – | Reads/Total SASPT-like reads (%) (Table 2): 0.356%; Reads/Total pentapeptide reads (%) (Table 2): 0.002%; Reads/Total peptide reads (%) (Table 2): 0.002%; Number of reads (Table 2, after second round of sorting): 94 |
| AβC5-215 (TTPWR; cyclic) | 0.028% | 0.013% | 0.012% | 524 | – |
| AβC5-177 (TATAR; cyclic) | 0.049% | 0.023% | 0.020% | 925 | – |

| Substance | Reads/Total TXXXR reads (%) [1] | Reads/Total pentapeptide reads (%) [2] | Reads/Total peptide reads (%) [3] | Number of reads [4] | also measured |
| --- | --- | --- | --- | --- | --- |
| AβC5-67 (TARDR; cyclic pentapeptide) | 0.747% | 0.350% | 0.314% | 14,213 | – |
| TPALFD [AβC6-68] | – | – | – | – | Reads/Total hexapeptide reads (%) (Table 4): 0.022%; Reads/Total peptide reads (%) (Table 4): 0.002%; Number of reads [5]: 101 |
| TLGWLD [AβC6-42] | – | – | – | – | Reads/Total hexapeptide reads (%) (Table 4): 0.068%; Reads/Total peptide reads (%) (Table 4): 0.007%; Number of reads [5]: 307 |
| AβC5-26 (TAWCR; cyclic) | 1.493% | 0.699% | 0.627% | 28,391 | – |
| cyclo-TLGR (cyclic) [AβC4B-86] | – | – | – | – | Normalized read number (%): 0.1697% |
| AβC5-173 (TTHAR; cyclic) | 0.050% | 0.023% | 0.021% | 953 | – |
| AβC5-94 (TVLFR; cyclic) | 0.391% | 0.183% | 0.164% | 7,442 | – |
| AβC5-21 (TTWCR; cyclic) | 1.908% | 0.894% | 0.801% | 36,295 | – |
| TPGLVD [AβC6-58] | – | – | – | – | Reads/Total hexapeptide reads (%) (Table 4): 0.031%; Reads/Total peptide reads (%) (Table 4): 0.003%; Number of reads [5]: 142 |
| AβC5-239 (TTMHR; cyclic) | 0.020% | 0.009% | 0.008% | 384 | – |
| TPAWSD [AβC6-69] | – | – | – | – | Reads/Total hexapeptide reads (%) (Table 4): 0.019%; Reads/Total peptide reads (%) (Table 4): 0.002%; Number of reads [5]: 86 |
| AβC5-375 (TNLAR; head-to-tail cyclic) | 0.005% | 0.002% | 0.002% | 97 | – |
| AβC5-365 (TTGGR; head-to-tail cyclic) | 0.006% | 0.003% | 0.002% | 106 | – |
| TLCWLN [AβC6-32] | – | – | – | – | Reads/Total hexapeptide reads (%) (Table 4): 0.101%; Reads/Total peptide reads (%) (Table 4): 0.010%; Number of reads [5]: 455 |
| AβC5-364 (TTMAR; head-to-tail cyclic) | 0.006% | 0.003% | 0.002% | 106 | – |
| cyclo-TTCR (cyclic) [AβC4-9] | – | – | – | – | Normalized read number (%): 1.248% |
